MFI data for 34 substances are collected here from US20200040059A1.

The target of test [1] is human PD-L1, full length, on transfected HEK293 cells (human) (UniProt Q9NZQ7). Kind of test: flow cytometry, Fc fusion at 22.2 nM on HEK293 cells transfected with PD-L1. (In general: A flow cytometer gives signals particle by particle.)
Test [2] concerns the target T1, CD226 (human) (UniProt Q15762).
T1 sequence: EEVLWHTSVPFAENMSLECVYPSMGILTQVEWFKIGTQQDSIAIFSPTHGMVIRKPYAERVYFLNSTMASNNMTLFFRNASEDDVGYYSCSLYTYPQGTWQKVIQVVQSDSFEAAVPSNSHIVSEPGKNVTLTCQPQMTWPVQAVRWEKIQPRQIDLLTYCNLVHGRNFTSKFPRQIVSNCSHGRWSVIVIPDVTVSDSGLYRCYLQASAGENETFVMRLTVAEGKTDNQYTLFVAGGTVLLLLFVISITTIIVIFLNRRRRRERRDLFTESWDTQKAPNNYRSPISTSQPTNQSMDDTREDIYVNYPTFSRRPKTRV
Kind of test: flow cytometry, cells expressing target, 25 nM.

Test [3] addresses T2, CD96 (UniProt P40200).
T2 sequence (looked up): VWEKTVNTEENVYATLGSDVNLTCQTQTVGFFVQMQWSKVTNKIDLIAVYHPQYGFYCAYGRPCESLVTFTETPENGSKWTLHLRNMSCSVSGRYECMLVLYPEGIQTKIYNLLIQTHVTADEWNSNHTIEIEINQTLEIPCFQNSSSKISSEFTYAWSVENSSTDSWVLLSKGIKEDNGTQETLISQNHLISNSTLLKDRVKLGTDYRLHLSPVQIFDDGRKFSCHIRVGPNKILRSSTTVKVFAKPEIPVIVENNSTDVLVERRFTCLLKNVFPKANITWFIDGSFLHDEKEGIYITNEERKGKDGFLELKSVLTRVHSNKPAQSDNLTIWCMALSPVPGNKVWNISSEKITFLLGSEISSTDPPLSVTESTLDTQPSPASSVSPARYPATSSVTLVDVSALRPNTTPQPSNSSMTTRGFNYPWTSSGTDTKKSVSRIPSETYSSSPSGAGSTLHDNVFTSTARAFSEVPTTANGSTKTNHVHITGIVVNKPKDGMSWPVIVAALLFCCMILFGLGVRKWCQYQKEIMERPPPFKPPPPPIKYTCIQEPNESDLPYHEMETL
Kind of test: flow cytometry, cells expressing target, 25 nM.

The target of test [4] is CD112R (human) (UniProt Q6DKI7). Kind of test: flow cytometry, cells expressing target, 25 nM.
Chain of CD112R (human) (Q6DKI7 whole entry): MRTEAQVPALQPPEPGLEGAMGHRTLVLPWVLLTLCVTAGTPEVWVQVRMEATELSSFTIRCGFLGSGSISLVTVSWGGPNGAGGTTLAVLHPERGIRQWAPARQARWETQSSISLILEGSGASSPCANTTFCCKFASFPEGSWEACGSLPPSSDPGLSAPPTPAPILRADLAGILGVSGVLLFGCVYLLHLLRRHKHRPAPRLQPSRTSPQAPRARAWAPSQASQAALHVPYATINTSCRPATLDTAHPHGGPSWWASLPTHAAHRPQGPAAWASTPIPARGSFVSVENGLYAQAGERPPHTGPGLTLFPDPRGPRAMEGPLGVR
The target of test [5] is CD112R, expressed on transfected cells (human) (UniProt Q6DKI7). Description: flow cytometry on transfected cells.
Chain of CD112R, expressed on transfected cells (human) (Q6DKI7 whole entry): as above
Test [6] deals with CD96, expressed on transfected cells (UniProt P40200). Description: flow cytometry on transfected cells.
The target of test [7] is T3, human CD226, full length, expressed on transfected cells (human) (UniProt Q15762).
T3 sequence: T1 sequence
Description: flow cytometry on transfected cells.

Test [8] has as its target CD80 (Homo sapiens (Human)) (UniProt P33681). Kind of test: flow cytometry, cells expressing CD80.

Where “and” joins values, the source holds several entries; their conditions need not be identical. Equal entries are not always repeated.

Chain of CD80 (Homo sapiens (Human)) (P33681 35-288 limits assumed): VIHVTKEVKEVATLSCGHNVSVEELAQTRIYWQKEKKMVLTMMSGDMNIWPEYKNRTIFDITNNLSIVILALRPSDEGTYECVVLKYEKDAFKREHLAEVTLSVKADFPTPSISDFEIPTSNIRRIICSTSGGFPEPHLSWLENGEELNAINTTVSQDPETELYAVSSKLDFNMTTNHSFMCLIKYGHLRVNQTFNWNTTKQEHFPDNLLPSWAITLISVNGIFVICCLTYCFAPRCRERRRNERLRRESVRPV
Chain of CD112-IgV (Q92692 32-156 limits assumed): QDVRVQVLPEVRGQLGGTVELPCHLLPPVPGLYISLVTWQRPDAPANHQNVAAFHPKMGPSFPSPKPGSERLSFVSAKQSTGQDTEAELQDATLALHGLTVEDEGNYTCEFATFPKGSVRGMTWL

Turning to “CD80 variant IgV-Fc E35D/A71D/L72V (from UniProt P33681 35-141) (Fc fusion)”, the MFI at 22.2 nM in test [1] was 13100 MFI.
Turning to “CD80 variant IgV-Fc E35D/M47I/L70M (from UniProt P33681 35-141) (Fc fusion)”, the MFI at 22.2 nM in test [1] is 49100 MFI.
On to “CD112-IgV (from UniProt Q92692 32-156) (Fc fusion)”, for which the MFI at 25 nM in test [2] was 824 MFI; in test [3], 1170 MFI.
For the substance “CD155 variant IgV-Fc P18S, L21M, Y30F, N35D, R84W, F91S, T107M, D116G (from UniProt P15151 24-139) (Fc fusion)”, the MFI at 25 nM in test [4] was found to be 946 MFI; in test [2], 743 MFI; in test [3] it was 1030 MFI.
Consider “CD155 variant IgV-Fc P18S, P34S, E51V, L79P, F91S, G111R (from UniProt P15151 24-139) (Fc fusion)”, for which the MFI at 25 nM in test [4] is 853 MFI; in test [2], 769 MFI; in test [3], 892 MFI.
Turning to “CD155 variant IgV-Fc P18S, S42T, E51G, L79P, F91S, G92W, T107M (from UniProt P15151 24-139) (Fc fusion)”, the MFI at 25 nM in test [4] was 857 MFI and 935 MFI; in test [2], 707 MFI and 851 MFI; in test [3] it was 1050 MFI and 924 MFI.
As to “CD155 variant IgV-Fc P18S, W46R, E68D, L79P, F91S, T107M, R113G (from UniProt P15151 24-139) (Fc fusion)”, the MFI at 25 nM in test [4] turned out to be 798 MFI; in test [2], 717 MFI; in test [3], 737 MFI.
Regarding “CD155 variant IgV-Fc T15I, P18S, V33M, N35F, T39S, M55L, R78S, L79P, F91S, T107M (from UniProt P15151 24-139) (Fc fusion)”, the MFI at 25 nM in test [4] came to 789 MFI; in test [2], 1020 MFI; in test [3], 2710 MFI.
As to “CD155 variant IgV-Fc V9I, P18S, S24P, H49Q, F58Y, Q60R, Q62K, L79P, F91S, T107M (from UniProt P15151 24-139) (Fc fusion)”, the MFI at 25 nM was determined as 1030 MFI in test [4], 1090 MFI in test [2] and 43900 MFI in test [3].
The corresponding values for “CD155 variant IgV-Fc V9L, P18Y, V25A, V38G, M55V, A77T, L79P, M90I, F91S, L104M (from UniProt P15151 24-139) (Fc fusion)” are 919 MFI, 26000 MFI and 18000 MFI.
For the substance “CD155 variant IgV-Fc V11A, P18T, N35S, L79P, S87T, F91S (from UniProt P15151 24-139) (Fc fusion)”, the results for the MFI at 25 nM in test [4], in test [2] and in test [3] were 1270 MFI, 274000 MFI and 69900 MFI, respectively.
For the substance “CD155 variant S42L, S52L, Q62F, L104Q IgV-Fc (from UniProt P15151 24-139) (Fc fusion)”, the MFI at 100 nM was 1730 in test [5], 2320 in test [6] and 2640 in test [7].
For the substance “CD155 variant S42L, S52Q, L104E IgV-Fc (from UniProt P15151 24-139) (Fc fusion)”, the MFI at 100 nM is 1750 in test [5], 1700 in test [6] and 6470 in test [7].
Taken in the same sequence, the figures for “CD155 variant S42N IgV-Fc (from UniProt P15151 24-139) (Fc fusion)” were 1700, 1690 and 1910.
Taken in the same sequence, the figures for “CD155 variant S42N, S52E, V57L, L104E IgV-Fc (from UniProt P15151 24-139) (Fc fusion)” were 1690, 1540 and 1740.
In the case of “CD155 variant S42Q IgV-Fc (from UniProt P15151 24-139) (Fc fusion)”, the MFI at 100 nM in test [5] was 1910; in test [6] it was 2140; in test [7] it was 2230.
“CD155 variant S42V, S52E IgV-Fc (from UniProt P15151 24-139) (Fc fusion)”: the MFI at 100 nM in test [5] was 1810; in test [6] it was 2530; in test [7], 2270.
Taken in the same sequence, the figures for “CD155 variant S42W, S52Q, V57L, Q62Y IgV-Fc (from UniProt P15151 24-139) (Fc fusion)” were 1840, 1700 and 2140.
For “CD155 variant S52M, Q62Y IgV-Fc (from UniProt P15151 24-139) (Fc fusion)”, the MFI at 100 nM in test [5] worked out at 1770; in test [6] it was 1650; in test [7], 2000.
Turning to “CD155 variant S52M, V57L IgV-Fc (from UniProt P15151 24-139) (Fc fusion)”, the MFI at 100 nM in test [5] turned out to be 2010; in test [6], 1860; in test [7], 2430.
Regarding “CD155 variant S52W, L104E IgV-Fc (from UniProt P15151 24-139) (Fc fusion)”, the MFI at 100 nM in test [5] was found to be 2070; in test [6] it was 1630; in test [7], 1910.
The substance “variant PD-L1 ECD-Fc E54G, M97L, S99G (from UniProt Q9NZQ7 19-238) (Fc fusion)” came in with an MFI at 20 nM in test [8] of 51900.
As for “variant PD-L1 ECD-Fc G15A, V129D (from UniProt Q9NZQ7 19-238) (Fc fusion)”, the MFI at 20 nM in test [8] is 128.
For “variant PD-L1 ECD-Fc I36S, M97L (from UniProt Q9NZQ7 19-238) (Fc fusion)”, the MFI at 20 nM in test [8] is 44600.
Still for that read-out and setting: under “variant PD-L1 ECD-Fc I36T, M97L, V129D (from UniProt Q9NZQ7 19-238) (Fc fusion)” stands 50900; under “variant PD-L1 ECD-Fc K57R, S99G (from UniProt Q9NZQ7 19-238) (Fc fusion)”, 16300.
On to “variant PD-L1 ECD-Fc K57R, S99G, R195G (from UniProt Q9NZQ7 19-238) (Fc fusion)”, for which the MFI at 20 nM in test [8] is 11000.
As to “variant PD-L1 ECD-Fc M18V, I98L, L124S, P198T, L206F (from UniProt Q9NZQ7 19-238) (Fc fusion)”, the MFI at 20 nM in test [8] is 143.
Consider “variant PD-L1 ECD-Fc M18V, M97L, T176N, R195G (from UniProt Q9NZQ7 19-238) (Fc fusion)”, for which the MFI at 20 nM in test [8] came to 45300.
In test [8], “variant PD-L1 ECD-Fc S99G, T185A, R195G, P198T (from UniProt Q9NZQ7 19-238) (Fc fusion)” gave an MFI at 20 nM of 22100.
The same measure, in the same setting: next, “variant PD-L1 ECD-Fc V93E, V129D (from UniProt Q9NZQ7 19-238) (Fc fusion)”: 150; “variant PD-L1 ECD-Fc V129D, H202Q (from UniProt Q9NZQ7 19-238) (Fc fusion)”: 219.
Turning to “variant PD-L1 ECD-Fc V129D, P198T (from UniProt Q9NZQ7 19-238) (Fc fusion)”, in test [8], the MFI at 20 nM is 152.
Consider “variant PD-L1 ECD-Fc V129D, T150A (from UniProt Q9NZQ7 19-238) (Fc fusion)”, for which the MFI at 20 nM in test [8] amounted to 142.
